The source of these data is US20130295121A1 (published 2013).

The target of one test is T1, soluble CD32A (sCD32A) (UniProt P12318 34-217, limits assumed).
T1 construct: extracellular domain; Negative control receptor in SPR; also called control receptor
T1 sequence (looked up): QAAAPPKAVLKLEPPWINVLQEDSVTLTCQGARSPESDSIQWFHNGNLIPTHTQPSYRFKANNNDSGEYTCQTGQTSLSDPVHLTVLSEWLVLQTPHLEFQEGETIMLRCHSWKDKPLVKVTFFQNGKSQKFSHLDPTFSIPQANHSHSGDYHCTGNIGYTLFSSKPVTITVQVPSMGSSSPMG
Briefly: SPR (BIAcore), receptor immobilized.

In another test the target is T2, soluble CD16A (sCD16A) (human, UniProt P08637 17-208, biotin- or HRP-conjugated where used as the ELISA probe).
T2 construct: extracellular domain; Printed only as soluble CD16A; Also used here where an ELISA names only CD16 or CD16A; also called hCD16A; FcγRIIIA
Briefly: SPR (BIAcore), receptor immobilized.

The target in the next test is T3, soluble CD32B (sCD32B) (human, UniProt P31994 43-217, biotinylated where used as the ELISA probe).
T3 construct: extracellular domain; also called huCD32B; FcγRIIB
T3 sequence (looked up): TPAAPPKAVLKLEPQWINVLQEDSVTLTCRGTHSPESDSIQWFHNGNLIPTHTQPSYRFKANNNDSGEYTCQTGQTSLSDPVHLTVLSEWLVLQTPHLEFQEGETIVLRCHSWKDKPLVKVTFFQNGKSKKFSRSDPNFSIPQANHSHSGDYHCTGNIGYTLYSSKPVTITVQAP
Briefly: SPR (BIAcore), sCD32B immobilized, diabody 6.25-200 nM as analyte, bivalent analyte fit.

T2 sequence (P08637 17-208): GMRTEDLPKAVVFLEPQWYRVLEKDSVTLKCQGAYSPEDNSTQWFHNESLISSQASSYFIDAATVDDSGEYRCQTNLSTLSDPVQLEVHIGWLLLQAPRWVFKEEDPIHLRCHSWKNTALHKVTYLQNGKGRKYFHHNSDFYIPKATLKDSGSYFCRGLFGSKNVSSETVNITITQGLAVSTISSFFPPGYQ

B1: h2B6 covalent monospecific diabody (CMD) (other)
chain: EIVLTQSPDFQSVTPKEKVTFTCRTSQSIGTNIHWYQQKPDQSPKLLIKEVSESISGVPSRFSGSGSGTDFTLTINSLEAEDAATYYCQQSNTWPFTFGGGTKVEIKGGGSGGGGQVQLVQSGAEVKKPGASVKVSCKASGYTFTNYWIHWVRQAPGQGLEWIGVIDPSDTYPNYNKKFKGRVTMTVVVSTSTAYMELRSLRSDDTAVYYCARNGDSDYYSGMDYWGQGTTVTVSSLGGC
notes: Homodimer of construct 4 (hu2B6VL-hu2B6VH-LGGC); also called h2B6 CMD; h2B6 diabody
Regarding B1, the binding result with soluble CD32A (sCD32A) and in the test with soluble CD16A (sCD16A) was “no binding (tested: 100 nM)” throughout. Further, the Kd with soluble CD32B (sCD32B) was 21 nM.
